Tests used:
Assay type in all cases: biochemical
[1] = Activity against Hipp-Asp in crude E. coli periplasmic shockate relative to D253K or D253R HCPB (Example 16)
Text: (§1) A number of other mutant HCPBs have been constructed in a similar manner to the methods described in Reference Examples 7 and 8, and Examples 12, 13, 14 and 15. In each case oligos were constructed to introduce specific changes in the gene sequence by methods similar to those described above. In some cases additional mutations were identified upon complete sequencing of the mutated gene, and these were presumably introduced during the PCR reactions. Mutants with enzyme activity against substrate analogues (see Example 18 below) have been identified, and examples of these are given in Table 4 below. […] This material is subsequently referred to as periplasmic shockate or shockate and is prepared by the following procedure.
(§2) 1. A single colony was used to inoculate 75 ml of L-broth nutrient media containing 10 μg/ml tetracycline and arabinose to a final concentration of 0.01% (w/v). Incubation was performed at 20° C. with shaking (250 rpm) for about 60 hours.
(§3) 2. The cells were then harvested by centrifugation at 4° C.
(§4) 3. The cell pellet was re-suspended in 300 micro-liters of 20% sucrose (w/v) containing 1 mM EDTA in 200 mM Tris-HCl at pH7.5, and incubated at room-temperature for 15 minutes.
(§5) 4. Periplasmic shockate was generated by the addition of 450 micro-liters of distilled water, and a further incubation at room-temperature for 15 minutes.
(§6) 5. Cellular remains were removed by centrifugation, and the supernatant assayed for enzyme activity as soon as possible after preparation and kept at 4° C. prior to assay.
(§7) The activity of [G251T,D253K]HCPB was measured using the assay conditions described in Example 17 but using either 50 μl of a neat or 1 in 10 or 1 in 100 dilution of [G251T,D253K]HCPB crude E.coli periplasmic shockate (shockate) sample in place of purified enzyme. Samples were incubated for 24 h at 37° C. […] For other HCPB mutants, the reaction volume was 250 μl and contained 125 μl of neat shockate or 1 in 50 dilution of shockate. The shockate samples were prepared as described in Example 16. The amount of Hippuric acid produced in 24 h was quantified by HPLC as described in Example 17 and the results are shown in Table 6 and are expressed as the percentage conversion of substrate into product in 24 h at 37° C.

[2] = Activity against Hipp-Glu in crude E. coli periplasmic shockate relative to D253K or D253R HCPB (Example 16)
Text: as §1, §2, §3, §4, §5, §6
The activity of [G251T,D253K]HCPB was measured using the assay conditions described in Example 17 but using either 50 μl of a neat or 1 in 10 or 1 in 100 dilution of [G251T,D253K]HCPB crude E.coli periplasmic shockate (shockate) sample in place of purified enzyme. Samples were incubated for 24 h at 37° C. […] The amount of Hippuric acid produced in 24 h was quantified by HPLC as described in Example 17 and the results are shown in Table 6 and are expressed as the percentage conversion of substrate into product in 24 h at 37° C.

[3] = Conversion of Hipp-Asp by purified HCPB mutants, 30 minutes, HPLC (Example 17); conditions: 0.5 mM substrate, 30 minutes at 37° C.
Experimental: (§8) Purified mutants of human CPB (D253K; [G251K,D253R]; [G251N,D253R]; [I201S,D253K]; [G251N,D253K]; [Q54R,D145A,D253K]; [G251T,D253K]; [G251S,D253K]; [A248N,G251N,D253K]; [A248S,G251N,D253K] and [S205N,G251N,D253K]—described in Examples 3, 12, 13, 16, 28, 30, 31, 32 and 33) were assayed for their ability to convert hippuryl-L-glutamic acid (Hipp-Glu—Reference Example 1), hippuryl-L-aspartic acid (Hipp-Asp—Reference Example 2) and hippuryl-L-arginine (Sigma Chemical Company—cat no. H6625) to hippuric acid using a HPLC based assay similar to that described in Example 6.
(§9) Samples were incubated for 30 minutes at 37° C. The reactions were terminated by the addition of 500 μl of 40% methanol, 60% distilled water, 0.2% trifluoro acetic acid and the amount of hippuric acid generated was quantitated by HPLC as described in Example 6 but using a mobile phase of 20% methanol, 80% 50 mM phosphate buffer, pH 6.5. Hippuric acid was detected at 230 nm. The results are shown in Table 5 and are expressed as the percentage conversion of substrate into product in 30 minutes at 37° C.

[4] = Conversion of Hipp-Glu by periplasmic shockate of HCPB mutants, 24 h (Example 18); conditions: 24 h at 37° C.
Experimental: as §7

[5] = Conversion of Hipp-Arg by purified HCPB mutants, 30 minutes, HPLC (Example 17); conditions: 0.5 mM substrate, 30 minutes at 37° C.
Experimental: as §8, §9

[6] = Km and kcat of HCPB mutants with Hipp-Glu (Example 7); conditions: Hipp-Glu 0.25-8.0 mM; pH 7.5; 5 h at 37° C.
Experimental: (§10) Hipp-Glu and Hipp-Asp were diluted in range 0.25-8.0 mM and 0.25-5.0 mM respectively in 0.025 M Tris-HCL buffer, pH 7.5. Where necessary substrate samples were adjusted to pH 7.5 with 1M NaOH.
(§11) Samples were incubated for 5 h at 37° C. Reactions were terminated by the addition of 500 μl methanol/distilled water (80/20) containing 0.2% TFA. The amount of hippuric acid produced was quantified by HPLC as described in Example 6.
(§12) Km and Vmax values were calculated using the ENZFITTER software programme (Biosoft, Perkin Elmer).

[7] = Conversion of Hipp-Asp by periplasmic shockate of HCPB mutants, 24 h (Example 18); conditions: shockate concentration in reaction mixture 50 %; 24 h at 37° C.
Experimental: as §7

[8] = Km and kcat of HCPB mutants with Hipp-Asp (Example 7); conditions: Hipp-Asp 0.25-5.0 mM; pH 7.5; 5 h at 37° C.
Experimental: as §10, §11, §12

[9] = Conversion of Hipp-Glu by purified HCPB mutants, 30 minutes, HPLC (Example 17); conditions: 0.5 mM substrate, 30 minutes at 37° C.
Experimental: as §8, §9

[10] = shockate concentration in reaction mixture 50 %

B1: [I201T, D253R]: HCPB mutant with I201T and D253R, (His)6-c-myc tag (protein, UniProt P15086 111-417, looked up, variant I201T D253R)
Carboxypeptidase B: ATGHSYEKYNKWETIEAWTQQVATENPALISRSVIGTTFEGRAIYLLKVGKAGQNKPAIFMDCGFHAREWISPAFCQWFVREAVRTYGREIQVTELLDKLDFYVLPVLNIDGYIYTWTKSRFWRKTRSTHTGSSCIGTDPNRNFDAGWCEIGASRNPCDETYCGPAAESEKETKALADFIRNKLSSIKAYLTIHSYSQMMTYPYSYAYKLGENNAELNALAKATVKELASLHGTKYTYGPGATTIYPAAGGSRDWAYDQGIRYSFTFELRDTGRYGFLLPESQIRATCEETFLAIKYVASYVLEHLY
modifications: (His)6-c-myc tag
- Hipp-Asp, activity relative to D253K HCPB or D253R HCPB [1]: b (activity equivalent to D253R HCPB)
- Hipp-Glu, activity relative to D253K HCPB or D253R HCPB [2]: b (activity equivalent to D253R HCPB)

B2: [G251T,D253R]HCPB: HCPB mutant with G251T and D253R, (His)6-c-myc tag (protein, UniProt P15086 111-417, looked up, variant G251T D253R)
Carboxypeptidase B: ATGHSYEKYNKWETIEAWTQQVATENPALISRSVIGTTFEGRAIYLLKVGKAGQNKPAIFMDCGFHAREWISPAFCQWFVREAVRTYGREIQVTELLDKLDFYVLPVLNIDGYIYTWTKSRFWRKTRSTHTGSSCIGTDPNRNFDAGWCEIGASRNPCDETYCGPAAESEKETKALADFIRNKLSSIKAYLTIHSYSQMMIYPYSYAYKLGENNAELNALAKATVKELASLHGTKYTYGPGATTIYPAAGTSRDWAYDQGIRYSFTFELRDTGRYGFLLPESQIRATCEETFLAIKYVASYVLEHLY
modifications: (His)6-c-myc tag
- Hipp-Asp (% conversion) ([3]; enzyme 1 μg/ml): 1.2%
- Hipp-Asp (% conversion) ([3]; enzyme 25 μg/ml): 29%
- Hipp-Glu (% conversion) [4, 10]: 65.4%
- Hipp-Arg (% conversion) ([5]; enzyme 1 μg/ml): 0%
- Hipp-Arg (% conversion) ([5]; enzyme 25 μg/ml): 0%
- Km [6]: 1600 µM
- kcat, Hipp-Glu [6]: 7.8 s⁻¹
- Hipp-Asp (% conversion) [7]: 14.6%
- Km [8]: 1700 µM
- kcat, Hipp-Asp [8]: 0.7 s⁻¹
- Hipp-Glu (% conversion) ([9]; enzyme 1 μg/ml): 16.2%
- Hipp-Glu (% conversion) ([9]; enzyme 25 μg/ml): 96%

B3: [G251S, D253K]: HCPB mutant with G251S and D253K, (His)6-c-myc tag (protein, UniProt P15086 111-417, looked up, variant G251S D253K)
Carboxypeptidase B: ATGHSYEKYNKWETIEAWTQQVATENPALISRSVIGTTFEGRAIYLLKVGKAGQNKPAIFMDCGFHAREWISPAFCQWFVREAVRTYGREIQVTELLDKLDFYVLPVLNIDGYIYTWTKSRFWRKTRSTHTGSSCIGTDPNRNFDAGWCEIGASRNPCDETYCGPAAESEKETKALADFIRNKLSSIKAYLTIHSYSQMMIYPYSYAYKLGENNAELNALAKATVKELASLHGTKYTYGPGATTIYPAAGSSKDWAYDQGIRYSFTFELRDTGRYGFLLPESQIRATCEETFLAIKYVASYVLEHLY
modifications: (His)6-c-myc tag
- Hipp-Asp (% conversion) ([3]; enzyme 0.25 μg/ml): 0%
- Hipp-Asp (% conversion) ([3]; enzyme 25 μg/ml): 2.8%
- Hipp-Glu (% conversion) ([4]; shockate concentration in reaction mixture 1 %): 5%
- Hipp-Glu (% conversion) [4, 10]: 93.8%
- Hipp-Arg (% conversion) ([5]; enzyme 0.25 μg/ml): 0%
- Hipp-Arg (% conversion) ([5]; enzyme 25 μg/ml): 0.8%
- Hipp-Asp (% conversion) [7]: 1.6%
- Hipp-Glu, activity relative to D253K HCPB or D253R HCPB [2]: e (>10 times the activity of D253K HCPB)
- Hipp-Glu (% conversion) ([9]; enzyme 0.25 μg/ml): 14.5%
- Hipp-Glu (% conversion) ([9]; enzyme 25 μg/ml): 100%
